According to publication PMC3025952, “Characterization of a core fragment of the rhesus monkey TRIM5α protein” (BMC Biochemistry, 2011):
Changes are numbered by the printed parent chain. Numbers in names are those of the source.

B1: BCCL2 protein, wild-type (B-box 2, coiled coil and linker 2 region of rhesus monkey TRIM5α), His6-tagged, from E. coli (domain or fragment)
chain: GSGLVPRGSASMSDSEVNQEAKPEVKLSPEEGQKVDHCARHGEKLLLFCQEDSKVICWLCERSQEHRGHHTFLMEEVAQEYHVKLQTALEMLRQKQQEAEKLEADIREEKASWKIQIDYDKTNVSADFEQLREILDWEESNELQNLEKEEEDILKSLTKSETEMVQQTQYMRELISELEHRLQGSMMDLLQGVDGIIKRIENMTLKKPKTFHKNQRRVFRAPDLKGMLDMFRELTDA
notes: vector-derived spacer between the His6 tag and E83 of TRIM5αrh; Predicted molecular weight with tag and spacer 29.026 kD; also called wild-type (wt); core fragment of TRIM5αrh; source: E. coli BL21(DE3)pLysS, purified (Ni-NTA, SEC, anion exchange); not shown: His6, N-terminal, kept
B2: BCCL2 LLER protein (L105E, L106E, E120R, R121E), His6-tagged, from E. coli (domain or fragment, rhesus monkey)
chain: B1 chain with L46E, L47E, E61R, R62E
notes: vector-derived spacer between the His6 tag and E83 of TRIM5αrh; also called LLER variant; source: E. coli BL21(DE3)pLysS, purified (Ni-NTA, anion exchange, SEC); not shown: His6, N-terminal, kept

Tests used:
[1] = biological target: the molecule itself; assay: SEC; Superdex 200 (10/30) column calibrated with globular molecular-weight markers, PBS; for LLER also with 25 μM ZnCl2 and DTT (profile not significantly affected)
[2] = biological target: the molecule itself; assay: SEC-MALS; SEC-LS: about 300 μg LLER on Superose 6 HR 10/30 with in-line Dawn EOS light scattering, refractometer and UV detector
[3] = biological target: the molecule itself; assay: single-particle cryo-electron microscopy; peak 1 and peak 2 gel-filtration fractions of LLER; peak 2 also incubated with an anti-His6 antibody to count the tags in a particle

Row | Protein | binding result [1] | stoichiometry N [2] | stoichiometry N [3]
1 | B1 | binds | – | –
2 | B2 | – | 2 | ≥ 2
